According to article PMC8181454:

Biological target: recombinant HPV16 E6 protein (human papillomavirus type 16) (UniProt P03126)
Assay: SPR

Chain of UniProt P03126 (P03126 whole entry): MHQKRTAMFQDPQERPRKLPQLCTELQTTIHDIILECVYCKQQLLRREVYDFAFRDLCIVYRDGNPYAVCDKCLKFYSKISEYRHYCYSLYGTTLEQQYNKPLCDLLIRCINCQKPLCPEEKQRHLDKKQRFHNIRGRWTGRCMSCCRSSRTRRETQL

For “ZWT affibody (original affibody scaffold molecule, wild-type Z domain) (designed binder)”, the koff was 0.000886 s⁻¹.
